Source: US20230242598A1, “FUNCTIONAL POLYPEPTIDES AND USE THEREOF” (priority 2020, published 2023)
Like-named read-outs stand apart in the source and are kept apart here.

Assays:
[1] = system: HeLa; conditions: cited from earlier work
[2] = system: smooth muscle cell; conditions: Frew et al. 2008; cited from earlier work
[3] = system: mice; conditions: i.p.; cited from earlier work
[4] = system: L1210; conditions: Kobayashi et al. 1994; cited from earlier work
[5] = system: HeLa cells; assay: Cytotoxicity of SOR, Cell Counting Kit-8 (WST-8); type: cell-based, human; conditions: ratio of cytotoxicity, HeLa versus L1210
Method: The cytotoxicity of SOR was evaluated using L1210 (RBRC-RCB2844, Riken) and HeLa (RBRC-RCB0007, Riken) cells. RPMI1640 medium supplemented with 10% FBS was used for the L1210 cells, and EMEM supplemented with 10% FBS was used for the HeLa cells. The cells were precultured for 3 days (L1210) or 7 days (HeLa) using a CO2 incubator (37° C., 5% CO2). […]. SOR dissolved in a medium (200 μg/mL) was filtered ([…]), and serially diluted 2-fold, and the diluted products were added to wells in an amount of 10 μL/well such that the final concentration of SOR was 50 to 0.024 μg/mL. The cells of each line were incubated for 48 hours, and the growth of the cells was quantified using Cell Counting Kit-8 (Dojindo Laboratories Co., Ltd.) based on the WST-8 method according to manufacturer's protocol. Absorption at 450 nm was measured using a microplate reader, and a mean of triplicate data was plotted to prepare a concentration-response curve, followed by analysis using Prism software. […].

[6] = system: Aplysia kurodai eggs; assay: Toxicity in Aplysia kurodai egg (influence on cleavage and development); type: in vivo
Method: Eggs were taken out of a newly deposited egg mass of Aplysia kurodai, and influence on cleavage was examined using the collected eggs. Eggs were taken out of the egg mass in artificial seawater (ASW) and gently centrifuged by hand centrifuge apparatus. The precipitated eggs were rinsed with ASW twice. Filtered natural seawater was added to a 24-well plate (2 mL/well), to which SOR (10 μL/well) and subsequently the liquid containing the eggs (20 μL/well) were added. Then, egg development was observed under microscope every few hours. […] Untreated control eggs underwent the second cleavage 6 hours after fertilization and developed into morula in 24 hours; […].

[7] = system: mice (ddY, male); type: in vivo; conditions: i.c.v.
Method: Toxicity in mice was assessed by intracerebroventricularly injecting varying concentrations of SOR to mice (ddY, male, 3 to 4 weeks old, Japan SLC, Inc.) (Sakai et al., J Pharmacol Exp Ther. 2001; 296(2):650-8). […] […].

[8] = system: Plasmid DNA (pTAC-1); assay: Cleavage of DNA by natural SOR, agarose electrophoresis; type: biochemical; conditions: SOR 8.8 μg/mL, with or without EDTA 12.5 mM, room temperature, 24 hours
Method: Plasmid DNA (pTAC-1, 4 ng, BioDynamics Laboratory, Inc.), or the plasmid DNA and EDTA (12.5 mM) were added to and mixed with a hydrophobic interaction chromatography fraction containing SOR (8.8 μg/mL) or a Tris-HCl buffer (pH 8.3) containing 0.1 M NaCl. The mixture was left at room temperature for 24 hours, separated by agarose electrophoresis, stained with ethidium bromide (15 min), and subsequently observed under UV light (260 nm). Thermo scientific GeneRuler 1 kb DNA Ladder (Thermo Fisher Scientific Inc.) was used as a marker.

[9] = system: HeLa cells (derived from human uterine cervix cancer); assay: Intracellular translocation into HeLa cell, confocal laser microscope; type: cell-based; conditions: overall conclusion
Method: Whether SOR could translocate into cells and further into the nuclei was studied using fluorescently labeled SOR. […] Also, BSA labeled with FITC in the same manner as above was used as a control.
The same experiment as in the section (1) was also conducted for HeLa cells (derived from human uterine cervix cancer). A HeLa suspension prepared at approximately 2.2×10^4 cells/mL was added at 270 μL/well to 8-well chamber cover glass (Eppendorf) to make approximately 6.0×10^3 cells/well, followed by preculture at 37° C. for 24 hours in a 5% CO2 incubator. […] The cells thus supplemented with the sample was subjected to fixing and permeabilization treatment over each time period from 30 minutes to 16 hours, and stained with DAPI. Then, a mount was prepared.

[10] = Isoelectric point by two-dimensional polyacrylamide gel electrophoresis (2-DE); type: physicochemical; conditions: IPG Strip 3-6
Method: Next, the isoelectric point of SOR was determined by two-dimensional polyacrylamide gel electrophoresis (2-DE). First, 443 μg of a sample was mixed with a rehydration solution (8 M urea, 0.5% 3-[(3-cholamidopropyl)dimethylammonio]-prop anesulfonic acid (CHAPS), 0.5% Bio-Lyte 3/10 (Bio-Rad Laboratories, Inc.), 0.2% dithiothreitol, 0.002% bromophenol blue). The obtained solution was applied to IPG Strip 3-6 (Bio-Rad Laboratories, Inc.). Isoelectric focusing electrophoresis was performed at 20° C. as follows: rehydration for 12 hours, 300 V for 30 minutes, 1000 V for 30 minutes, and 5000 V for 2 hours. After electrophoresis, the strip was equilibrated for 15 minutes with shaking in 2% SDS, 50 mM Tris-HCl, pH 8.8, 6 M urea, 30% glycerol, and 0.25% DTT. Subsequently, the strip was re-equilibrated for 15 minutes with shaking in 2% SDS, 50 mM Tris-HCl, pH 8.8, 6 M urea, 30% glycerol, and 4.5% iodoacetamide. The strip was put on a 12% polyacrylamide gel, and the second electrophoresis was performed in the same manner as in SDS-PAGE. The gel was stained with a silver staining kit (Wako Pure Chemical Industries, Ltd.).

C=C1[C@@H](C)[C@H]2[C@H](Cc3ccccc3)NC(=O)[C@]23[C@H](OC(C)=O)/C=C/[C@@](C)(O)C(=O)[C@@H](C)C/C=C/[C@H]3[C@@H]1O [Cytochalasin D]
IC50 ([1]; Miranda et al. 1974): 100 nM

C=CC[C@H](C)[C@H](C)C[C@@H](O)[C@H](O)[C@@H]1CC[C@@]2(C)O[C@@]3(C)C[C@@]4(C)O[C@H]5/C=C\C[C@H]6O[C@H]7C[C@H]8O[C@H]9C[C@@]%10(C)O[C@@](C)([C@@H]%11CC[C@H]%12O[C@@]%13(C)C[C@H]%14O[C@@]%15(C)C[C@H]%16O[C@@]%17(C)C[C@@H](O)[C@H]([C@@H]%18O[C@H]%19[C@H](O)[C@@H](O)[C@H](C[C@H](O)C[C@@H](O)[C@@H]%20O[C@H]%21[C@H](O)[C@@H](O)[C@H]([C@@H]%22O[C@@H]%23[C@H](O)[C@H]%24O[C@H]%25C[C@H]%26O[C@@H](C[C@H](O)[C@@H](O)[C@H]%27O[C@H]%28[C@H](O)[C@H]%29O[C@H]%30C[C@H]%31O[C@H]%32[C@@H](O)[C@@H](O)[C@H]([C@H](C)[C@H](O)[C@H](C)CC[C@H](OS(=O)(=O)[O-])[C@H](O)[C@H](C)C[C@@H](O)C(=C)/C(C)=C/CO)O[C@@H]%32[C@H](O)C[C@]%31(C)O[C@@H]%30C[C@]%29(C)O[C@@H]%28C[C@H]%27O)[C@H](OS(=O)(=O)[O-])[C@H](O)[C@@H]%26O[C@@H]%25C[C@@H]%24O[C@H]%23[C@H](O)[C@H]%22O)O[C@H]%21C[C@H]%20O)O[C@H]%19C[C@H]%18O)O[C@@H]%17[C@H](O)[C@]%16(C)O[C@@H]%15CC[C@]%14(C)O[C@@H]%13C[C@@H]%12O%11)[C@H](O)C[C@@H]%10O[C@]9(C)CC[C@]8(C)O[C@]7(C)C[C@@H]6O[C@@H]5C[C@@H]4O[C@@H]3C[C@@H]2O1.[Na+].[Na+] [Maito toxin]
IC50 [2]: ~0.058 nM | Lethal dose [3]: 37.9 pmol/kg

CC(=O)O[C@H]1C(=O)[C@@]2(C)[C@H]([C@H](OC(=O)c3ccccc3)[C@]3(O)C[C@H](OC(=O)[C@H](O)[C@@H](NC(=O)c4ccccc4)c4ccccc4)C(C)=C1C3(C)C)[C@]1(OC(C)=O)CO[C@@H]1C[C@@H]2O [Paclitaxel]
IC50 ([1]; Liebmann et al. 1993): 2.6 nM

CO[C@H]1C[C@H](CC[C@H](C)[C@H](O)[C@H](C)[C@H]2OC(=O)/C=C/C(C)=C/C[C@H](O)C[C@@H]3C=CC[C@@H](C[C@H](OC)[C@@H](C)[C@@H](O)C[C@@H](O)[C@H](C)[C@@H]([C@@H](C)[C@@H](O)[C@@H](C)CC[C@H]4C[C@H](OC)C[C@H](C)O4)OC(=O)/C=C/C(C)=C/C[C@H](O)C[C@@H]4C=CC[C@@H](C[C@H](OC)[C@@H](C)[C@@H](O)C[C@@H](O)[C@@H]2C)O4)O3)O[C@@H](C)C1 [Swinholide A]
IC50 [4]: 22 nM

B1: soritesidine (protein)
chain: HFSLKRQDSSITHQTVSIFCITILLLSVSAYFPNSIPEAQAKLGDQRQIDIASWNTFDFGGKFGGVCKANDPTILQAMTDVISQHDVILVQEIANVTNPCNPANIFSGFNNLCSNNYLGGLGYLCQDTGIVGSGEGYGIIYKNNTGIGNVVIERTDNPNTVPYIPAGGGNNQMKRPPMKATLDFNAGAFNVVVYNAHTSPSGGVPKEIKLLSDRISPAHNPLDKNAVITLGDLNADGKRRLPNGQLDHGTDYYRGGFAAHPNDFPVSGWQQTVTDTDVTNFAQTLRAYDRMILSNATHNSYDEYGIIGGIPNPLPYPGGVYPAGTLFKNVHTGGGNTGKALSDHRLIWSKLNYGAIETTDNNGNTKSNFVEFTNPPQCTAPDTVYAKGADFVPNRTVDIYITKQPDNQNFIPLPQPQNPTNPGQFKQVGESYQLTDVRTTGKSTHNIDANGNIANTAVWVQPTPNQQYNLIVDVDRDGYFTNSIDIVDAFNTQGFDVDPCLRKRLAASLSDGIPAGDGTRDFVKPPKIFISGDWFPQGSARIYIIIYDKNFDYNGNDSKVLTDVRGTYDTITVGENHKFTGLEWSSPHVGNYNIIFDANSDGVYKKSDGDIVDHINEIGFAMLESYPHHSHIVDLDDNANQREDFNSGIAKNVYVLATNLPNPSTIVDVYVISEKLLKLNNPGWTTWQQSSNVPLKESAAPTNNGDRLHPTWVTPQKTVFGSVWHMPGDTFDPPYINYYGKKFTIVIDVNRDGKYDPSIDMVDTHDIGDMTDWFITQGHHDLSPTSGNGQPAVSEYKEYLNSKLDLENPLDNTNNYDAATEAASAQYLCRTNLPINLFENVIELGAQTGFIMFNPDEYYAGRDLNSGRHIYDAVDFDGLEINDGYTSVISAKEMTLNRLGVGQNSNLLTCGADTVTIDGMSTQKDSTTNIVAKTISHKSNISLEADTCTHYTHNLYFESDTNILVKAIESPFAWIIDVGDRILPGTGC
selectivity for the HeLa cells over the L1210 cells [5]: approximately 200 times | influence on egg cleavage and development ([6]; SOR 1.3 ng/mL): overall shape of the cells was shrunken and bubble-like protrusions on the cell surface were often observed, though development progressed | influence on egg cleavage and development ([6]; SOR 1.3 μg/mL, 24 hours): only two blastomeres were observed even 24 hours later | influence on the morphology of the eggs ([6]; varying SOR concentrations): concentration-dependent influence on the morphology of the eggs | Lethal dose [7]: 1.60 pmol/kg | acute toxicity [7]: no acute toxicity was observed | dosage causing lethal toxicity [7]: 5.74 ng/mouse | time to death ([7]; 574 ng of SOR): 18 h | time to loss of normal posture ([7]; 574 ng of SOR): 17 h | time to loss of voluntary movement ([7]; 574 ng of SOR): 14 h | eye observation after administration ([7]; 14 hours or later after administration): Reddish ring around eyes was observed | cleavage of DNA [8]: cleaved DNA in a metal ion-dependent manner | intracellular translocation [9]: intracellular translocation of SOR was confirmed | isoelectric point (pI) [10]: approximately 4.5
